{"source": "IntAct's records for PubMed 20850366", "parents": {"B1": {"name": "Small glutamine-rich tetratricopeptide repeat-containing protein 2 (Saccharomyces cerevisiae), Q12118 (parent)", "chain": "MSASKEEIAALIVNYFSSIVEKKEISEDGADSLNVAMDCISEAFGFEREAVSGILGKSEFKGQHLADILNSASRVPESNKKDDAENVEINIPEDDAETKAKAEDLKMQGNKAMANKDYELAINKYTEAIKVLPTNAIYYANRAAAHSSLKEYDQAVKDAESAISIDPSYFRGYSRLGFAKYAQGKPEEALEAYKKVLDIEGDNATEAMKRDYESAKKKVEQSLNLEKTVPEQSRDADVDASQGASAGGLPDLGSLLGGGLGGLMNNPQLMQAAQKMMSNPGAMQNIQKMMQDPSIRQMAEGFASGGGTPNLSDLMNNPALRNMAGNLFGGAGAQSTDETPDNENKQ"}, "B2": {"name": "Mitochondrial fission 1 protein (Saccharomyces cerevisiae), P40515 (parent)", "chain": "MTKVDFWPTLKDAYEPLYPQQLEILRQQVVSEGGPTATIQSRFNYAWGLIKSTDVNDERLGVKILTDIYKEAESRRRECLYYLTIGCYKLGEYSMAKRYVDTLFEHERNNKQVGALKSMVEDKIQKETLKGVVVAGGVLAGAVAVASFFLRNKRR", "partner": "B1 chain"}, "B3": {"name": "Small glutamine-rich tetratricopeptide repeat-containing protein 2 (Saccharomyces cerevisiae), Q12118 (parent)", "chain": "B1 chain", "partner": "B2 chain"}}, "data": [{"variants_of": "B1", "settings": "with sec22_yeast SEC22, P22214", "values": [{"variant": "MSASKEEIAALIVNYFSSIVEKKEISEDGADSLNVAMDCISEAFGFEREAVSGILGKSEFKGQHLADILNSASRVPESNKKDDAENVEINIPEDDAETKAKAEDLKMQGNKAMANKDYELAINKYTEAIKVLPTNAIYYANRAAAHSSLKEYDQAVKDAESAISIDPSYFAGYSALGFAKYAQGKPEEALEAYKKVLDIEGDNATEAMKRDYESAKKKVEQSLNLEKTVPEQSRDADVDASQGASAGGLPDLGSLLGGGLGGLMNNPQLMQAAQKMMSNPGAMQNIQKMMQDPSIRQMAEGFASGGGTPNLSDLMNNPALRNMAGNLFGGAGAQSTDETPDNENKQ", "note": "[R171A;R175A]", "effect of a mutation on the interaction": "with no effect"}]}, {"variants_of": "B2", "settings": "with sgt2_yeast SGT2, Q12118", "values": [{"variant": "MTKVDFWPTLKDAYEPLYPQQLEILRQQVVSEGGPTATIQSRFNYAWGLIKSTDVNDERLGVKILTDIYKEAESRRRECLYYLTIGCYKLGEYSMAKRYVDTLFEHERNNKQVGALKSMVEDKIQKETLKGVVVALLVLALLVAVASFFLRNKRR", "note": "[G136L;G137L;G141L;A142L]", "effect of a mutation on the interaction": "increasing interaction strength"}]}, {"variants_of": "B3", "settings": "with fis1_yeast FIS1, P40515", "values": [{"variant": "MSASKEEIAALIVNYFSSIVEKKEISEDGADSLNVAMDCISEAFGFEREAVSGILGKSEFKGQHLADILNSASRVPESNKKDDAENVEINIPEDDAETKAKAEDLKMQGNKAMANKDYELAINKYTEAIKVLPTNAIYYANRAAAHSSLKEYDQAVKDAESAISIDPSYFAGYSALGFAKYAQGKPEEALEAYKKVLDIEGDNATEAMKRDYESAKKKVEQSLNLEKTVPEQSRDADVDASQGASAGGLPDLGSLLGGGLGGLMNNPQLMQAAQKMMSNPGAMQNIQKMMQDPSIRQMAEGFASGGGTPNLSDLMNNPALRNMAGNLFGGAGAQSTDETPDNENKQ", "note": "[R171A;R175A]", "effect of a mutation on the interaction": "with no effect"}]}]}
